Residue numbers refer to the chain shown, from its start. Numbers in names are those of the source.

Consider 2 proteins from paper PMC9649601, “The E262K mutation in Lamin A links nuclear proteostasis imbalance to laminopathy‐associated premature aging” (Aging Cell, 2022).

This data set concerns the molecule itself. Kind of data set: dynamic light scattering + other: atomic force microscopy; purified proteins at 0.1 and 10 uM in aqueous environment; ex situ AFM at 10 uM; self-association (oligomers or aggregates).

B1: second rod domain of lamin A E262K (LMNA^E262K-rod2, residues 226-387) (domain or fragment, human, UniProt P02545 226-387, looked up)
chain: LVEIDNGKQREFESRLADALQELRAQHEDQVEQYKKKLEKTYSAKLDNARQSAERNSNLVGAAHEELQQSRIRIDSLSAQLSQLQKQLAAKEAKLRDLEDSLARERDTSRRLLAEKEREMAEMRARMQQQLDEYQELLDIKLALDMEIHAYRKLLEGEEERL
notes: lamin A (LMNA), human, second rod domain, residues 226-387, with the patient's variant p.Glu262Lys; source: bacterially expressed recombinant, purified
For the protein B1, the binding result is listed as “binds”.

B2: second rod domain of lamin A (LMNA-rod2, residues 226-387) (domain or fragment, human, UniProt P02545 226-387, looked up)
chain: B1 chain with K37E
notes: lamin A (LMNA), human, second rod domain, residues 226-387; source: bacterially expressed recombinant, purified
Take B2: the binding result is reported as “binds”.
